# Experimental data reported in the supplement of paper PMC10724198.
# ± gives the standard deviation of the averaged measurements.
# What was measured:
# [1] = system: Saccharomyces cerevisiae; assay: protein stability index of tFT-peptide fusion (C-terminal peptide) (PSI (0-1 scale)); higher = more stable (slower turnover)
# Description: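 MPS profiling in S. cerevisiae of the tFT-X12 degron library: putative degron peptides plus stable controls, 12 aa, fused to the C-terminus of a sfGFP-mCherry timer. Cells are FACS-sorted into 8 mCherry/sfGFP bins and deep-sequenced. PSI runs from 0 (unstable) to 1 (stable). Backgrounds are wild type, das1Δ and doa10Δ at 30 °C, and wild type, das1Δ, cdc34-1 and cdc53-1 at 37 °C; 2-3 technical replicates each.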
# [2] = system: Saccharomyces cerevisiae; assay: as above; conditions: genetic background: wild type; temperature: 30 C
# [3] = genetic background: cdc34-1, temperature: 37 C
# [4] = genetic background: cdc53-1, temperature: 37 C
# [5] = genetic background: das1 deletion, temperature: 30 C
# [6] = genetic background: das1 deletion, temperature: 37 C
# [7] = genetic background: doa10 deletion, temperature: 30 C
# [8] = genetic background: wild type, temperature: 30 C
# [9] = genetic background: wild type, temperature: 37 C
# 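Further: PSI is a weighted mean of sequencing reads over stability bins, variants kept only with over 10 reads, mCherry proximal and sfGFP distal, peptide attached via GGGS linker.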
Sequence,"protein stability index [1, 3]","protein stability index [1, 4]","protein stability index [1, 5]","protein stability index [1, 6]","protein stability index [1, 7]","protein stability index [1, 8]","protein stability index [1, 9]",protein stability index [2]
SSVCVLVSCVLG,0.462 ± 0.019,0.5241 ± 0.0032,0.375 ± 0.037,0.5353 ± 0.0013,0.363 ± 0.013,0.382 ± 0.022,0.5117 ± 0.00052,0.4818 ± 0.0031
SVGWGFWARFIG,0.686 ± 0.057,0.756 ± 0.013,0.665 ± 0.014,0.772 ± 0.0086,0.215 ± 0.016,0.253 ± 0.017,0.434 ± 0.018,0.379 ± 0.069
SVLALLWVGCWL,0.355 ± 0.0064,0.4238 ± 0.0021,0.271 ± 0.045,0.478 ± 0.017,0.253 ± 0.0065,0.265 ± 0.029,0.452 ± 0.028,0.378 ± 0.055
SVQICGFWLILG,0.512 ± 0.031,0.604 ± 0.046,0.416 ± 0.026,0.5955 ± 0.0046,0.317 ± 0.0037,0.333 ± 0.011,0.53992 ± 0.00031,0.386 ± 0.06
SVRGGSFLVHLC,0.614 ± 0.096,0.758 ± 0.011,0.636 ± 0.018,0.7525 ± 0.0012,0.154 ± 0.017,0.168 ± 0.015,0.337 ± 0.015,0.337 ± 0.043
SVVVLHVHVRPP,0.618 ± 0.035,0.692 ± 0.018,0.5839 ± 0.0056,0.63 ± 0.011,0.593 ± 0.044,0.582 ± 0.024,0.6287 ± 0.0031,0.517 ± 0.12
SWCLLVWIGGVF,0.288 ± 0.038,0.376 ± 0.033,0.295 ± 0.027,0.451 ± 0.02,0.251 ± 0.01,0.264 ± 0.03,0.432 ± 0.017,0.388 ± 0.094
SWGRGADRWRRA,0.645 ± 0.042,0.7218 ± 0.0025,0.649 ± 0.017,0.7267 ± 0.0056,0.156 ± 0.019,0.195 ± 0.016,0.4725 ± 0.0013,0.319 ± 0.056
SYWNSSPKCGNW,0.712 ± 0.064,0.76 ± 0.022,0.667 ± 0.021,0.7705 ± 0.0011,0.664 ± 0.039,0.681 ± 0.018,0.746 ± 0.011,0.744 ± 0.0092
TCRLIQLTVTLH,0.3115 ± 0.0026,0.3774 ± 0.001,0.257 ± 0.038,0.458 ± 0.0051,0.232 ± 0.0034,0.253 ± 0.018,0.4071 ± 0.0036,0.386 ± 0.053
TCVVCSCVLQCV,0.47 ± 0.041,0.491 ± 0.02,0.307 ± 0.023,0.49 ± 0.0051,0.305 ± 0.027,0.324 ± 0.028,0.4641 ± 0.0042,0.362 ± 0.04
TLCHLTLICVRE,0.221 ± 0.0099,0.253 ± 0.018,0.226 ± 0.019,0.358 ± 0.011,0.1767 ± 0.00029,0.21 ± 0.018,0.336 ± 0.012,0.382 ± 0.027
TLVFPRFLFLVV,0.348 ± 0.02,0.365 ± 0.019,0.393 ± 0.031,0.493 ± 0.023,0.518 ± 0.011,0.363 ± 0.028,0.432 ± 0.0083,0.452 ± 0.066
TNHRVRHWILRV,0.665 ± 0.013,0.721 ± 0.0099,0.609 ± 0.024,0.713 ± 0.02,0.253 ± 0.022,0.301 ± 0.019,0.517 ± 0.0083,0.396 ± 0.031
TPLLPPSPPPSR,0.647 ± 0.02,,0.27 ± 0.02,0.46 ± 0.0089,0.244 ± 0.0028,0.277 ± 0.017,0.4348 ± 0.0042,0.3328 ± 0.0026
TRPHPLRRVFIF,0.669 ± 0.034,0.725 ± 0.013,0.643 ± 0.0072,0.735 ± 0.013,0.226 ± 0.013,0.23 ± 0.038,0.433 ± 0.041,0.293 ± 0.026
TRSLLFANRCIV,0.66 ± 0.047,0.706 ± 0.033,0.619 ± 0.017,0.737 ± 0.0079,0.269 ± 0.0075,0.304 ± 0.025,0.503 ± 0.009,0.396 ± 0.014
TVCSWSALSRFM,0.691 ± 0.042,0.7558 ± 0.0062,0.6449 ± 0.0016,0.76419 ± 0.00033,0.631 ± 0.032,0.627 ± 0.015,0.705 ± 0.0097,0.587 ± 0.15
TVILVLFPSPFL,0.589 ± 0.036,0.679 ± 0.012,0.472 ± 0.037,0.671 ± 0.023,0.448 ± 0.014,0.484 ± 0.01,0.597 ± 0.017,0.51 ± 0.021
VAFFSVFYWLEC,0.287 ± 0.069,0.424 ± 0.066,0.299 ± 0.021,0.47 ± 0.033,0.261 ± 0.0032,0.29 ± 0.034,0.454 ± 0.018,0.365 ± 0.023

Sequence,"protein stability index [1, 3]","protein stability index [1, 4]","protein stability index [1, 5]","protein stability index [1, 6]","protein stability index [1, 7]","protein stability index [1, 8]","protein stability index [1, 9]",protein stability index [2]
VARRRQQWMRGS,0.517 ± 0.066,0.56 ± 0.034,0.5261 ± 0.003,0.54643 ± 0.00042,0.529 ± 0.0063,0.516 ± 0.025,0.5449 ± 0.004,0.517 ± 0.041
VCAFCLFFVPLP,0.5888 ± 0.00072,0.668 ± 0.023,0.425 ± 0.038,0.6497 ± 0.0021,0.3831 ± 0.0035,0.413 ± 0.022,0.593 ± 0.012,0.47 ± 0.013
VCFWCLYVMFSL,0.46 ± 0.043,0.494 ± 0.01,0.383 ± 0.019,0.463 ± 0.0068,0.372 ± 0.0057,0.363 ± 0.021,0.471 ± 0.022,0.418 ± 0.018
VCIPLLVIRFLV,0.098 ± 0.013,0.182 ± 0.014,0.234 ± 0.022,0.386 ± 0.029,0.0616 ± 0.019,0.0599 ± 0.014,0.0485 ± 0.00051,0.109 ± 0.0095
VCLFSVCLWFVS,0.0838 ± 0.025,0.219 ± 0.062,0.16 ± 0.026,0.313 ± 0.011,0.124 ± 0.0088,0.141 ± 0.015,0.227 ± 0.013,0.21 ± 0.044
VCLLVSVCLLWL,0.172 ± 0.0043,0.244 ± 0.047,0.21 ± 0.013,0.329 ± 0.021,0.18 ± 0.023,0.192 ± 0.025,0.309 ± 0.016,0.252 ± 0.015
VCLVFLFQFVLI,0.482 ± 0.094,0.507 ± 0.029,0.406 ± 0.023,0.517 ± 0.0061,0.442 ± 0.028,0.41 ± 0.0094,0.491 ± 0.01,0.481 ± 0.011
VCMVLCRWRGLG,0.601 ± 0.028,0.704 ± 0.0075,0.6061 ± 0.0028,0.6993 ± 0.0046,0.219 ± 0.011,0.234 ± 0.038,0.443 ± 0.026,0.331 ± 0.01
VCRCFPVCLFSF,0.6178 ± 0.0049,0.692 ± 0.014,0.523 ± 0.023,0.706 ± 0.027,0.294 ± 0.0057,0.341 ± 0.029,0.519 ± 0.02,0.413 ± 0.031
VCVRLVHCLVLV,0.2359 ± 0.0019,0.2514 ± 0.0021,0.208 ± 0.02,0.332 ± 0.0068,0.177 ± 0.01,0.174 ± 0.017,0.283 ± 0.014,0.265 ± 0.031
VFCCHSSRFVFA,0.642 ± 0.027,0.6789 ± 0.0065,0.525 ± 0.025,0.6858 ± 0.0031,0.49 ± 0.016,0.501 ± 0.028,0.623 ± 0.019,0.414 ± 0.022
VFCFCRFHFFCA,0.621 ± 0.066,0.649 ± 0.0077,0.496 ± 0.025,0.631 ± 0.026,0.432 ± 0.019,0.453 ± 0.02,0.563 ± 0.018,0.484 ± 0.026
VFFFVSFFAFSS,0.213 ± 0.0054,0.3558 ± 0.0034,0.22 ± 0.029,0.406 ± 0.0024,0.172 ± 0.016,0.179 ± 0.04,0.3544 ± 0.0014,0.288 ± 0.053
VFFLSFIFRFFL,0.594 ± 0.022,0.558 ± 0.02,0.508 ± 0.035,0.547 ± 0.013,0.482 ± 0.021,0.454 ± 0.0048,0.55 ± 0.087,0.532 ± 0.048
VFFPCRLLPLLF,0.517 ± 0.0066,0.585 ± 0.0073,0.479 ± 0.03,0.595 ± 0.026,0.1658 ± 0.0011,0.167 ± 0.014,0.286 ± 0.01,0.27 ± 0.023
VFFRVLVAGCRQ,0.537 ± 0.04,0.618 ± 0.021,0.451 ± 0.022,0.5761 ± 0.0052,0.449 ± 0.0066,0.468 ± 0.0052,0.568 ± 0.028,0.522 ± 0.084
VFGCHHLEVSVC,0.248 ± 0.012,0.267 ± 0.0036,0.259 ± 0.034,0.377 ± 0.0065,0.203 ± 0.012,0.241 ± 0.024,0.34 ± 0.012,0.34 ± 0.0065
VFGVWVVVGCVG,0.028 ± 0.007,0.101 ± 0.03,0.149 ± 0.037,0.215 ± 0.01,0.123 ± 0.019,0.143 ± 0.013,0.197 ± 0.013,0.248 ± 0.0043
VFRECSFFLVCC,0.255 ± 0.0076,0.287 ± 0.011,0.281 ± 0.026,0.366 ± 0.0094,0.224 ± 0.0033,0.252 ± 0.032,0.315 ± 0.016,0.333 ± 0.036
